Data from IntAct's records for PubMed 35512704.

B1: Speckle-type POZ protein (Homo sapiens), O43791 (parent)
chain: MSRVPSPPPPAEMSSGPVAESWCYTQIKVVKFSYMWTINNFSFCREEMGEVIKSSTFSSGANDKLKWCLRVNPKGLDEESKDYLSLYLLLVSCPKSEVRAKFKFSILNAKGEETKAMESQRAYRFVQGKDWGFKKFIRRDFLLDEANGLLPDDKLTLFCEVSVVQDSVNISGQNTMNMVKVPECRLADELGGLWENSRFTDCCLCVAGQEFQAHKAILAARSPVFSAMFEHEMEESKKNRVEINDVEPEVFKEMMCFIYTGKAPNLDKMADDLLAAADKYALERLKVMCEDALCSNLSVENAAEILILADLHSADQLKTQAVDFINYHASDVLETSGWKSMVVSHPHLVAEAYRSLASAQCPFLGPPRKRLKQS

Variants of: B1
Settings: with cdk6_human CDK6, Q00534

Row | Variant | effect of a mutation on the interaction
1 | F133L | with no effect

Variants of: B1
Settings: with cdn2c_human CDKN2C

Row | Variant | effect of a mutation on the interaction
2 | F133L | with no effect

Variants of: B1
Settings: with chd1l_human CHD1L

Row | Variant | effect of a mutation on the interaction
3 | F133L | with no effect

Variants of: B1
Settings: with chd2_human CHD2, O14647

Row | Variant | effect of a mutation on the interaction
4 | F133L | with no effect

Variants of: B1
Settings: with chk2_human CHEK2, O96017

Row | Variant | effect of a mutation on the interaction
5 | F133L | with no effect

Variants of: B1
Settings: with ch3l1_human CHI3L1, P36222
Chain of ch3l1_human CHI3L1, P36222 (P36222 whole entry): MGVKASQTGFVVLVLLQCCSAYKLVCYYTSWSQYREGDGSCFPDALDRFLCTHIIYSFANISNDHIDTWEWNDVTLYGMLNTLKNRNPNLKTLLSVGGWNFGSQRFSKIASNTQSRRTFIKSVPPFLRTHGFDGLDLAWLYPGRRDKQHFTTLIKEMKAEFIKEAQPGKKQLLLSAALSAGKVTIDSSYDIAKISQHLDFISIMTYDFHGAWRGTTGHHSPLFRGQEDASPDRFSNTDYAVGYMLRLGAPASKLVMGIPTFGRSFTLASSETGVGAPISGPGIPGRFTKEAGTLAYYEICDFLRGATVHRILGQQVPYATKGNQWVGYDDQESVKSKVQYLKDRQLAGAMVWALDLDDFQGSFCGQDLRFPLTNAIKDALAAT

Row | Variant | effect of a mutation on the interaction
6 | F133L | with no effect

Variants of: B1
Settings: with csf1r_human CSF1R

Row | Variant | effect of a mutation on the interaction
7 | F133L | with no effect

Variants of: B1
Settings: with ctla4_human CTLA4, P16410

Row | Variant | effect of a mutation on the interaction
8 | F133L | with no effect

Variants of: B1
Settings: with cul3_human CUL3, Q13618

Row | Variant | effect of a mutation on the interaction
9 | F133L | with no effect

Variants of: B1
Settings: with daxx_human DAXX

Row | Variant | effect of a mutation on the interaction
10 | F133L | with no effect

Variants of: B1
Settings: with ddx5_human DDX5, P17844

Row | Variant | effect of a mutation on the interaction
11 | F133L | with no effect

Variants of: B1
Settings: with dll3_human DLL3, Q9NYJ7
Chain of dll3_human DLL3, Q9NYJ7 (Q9NYJ7 whole entry): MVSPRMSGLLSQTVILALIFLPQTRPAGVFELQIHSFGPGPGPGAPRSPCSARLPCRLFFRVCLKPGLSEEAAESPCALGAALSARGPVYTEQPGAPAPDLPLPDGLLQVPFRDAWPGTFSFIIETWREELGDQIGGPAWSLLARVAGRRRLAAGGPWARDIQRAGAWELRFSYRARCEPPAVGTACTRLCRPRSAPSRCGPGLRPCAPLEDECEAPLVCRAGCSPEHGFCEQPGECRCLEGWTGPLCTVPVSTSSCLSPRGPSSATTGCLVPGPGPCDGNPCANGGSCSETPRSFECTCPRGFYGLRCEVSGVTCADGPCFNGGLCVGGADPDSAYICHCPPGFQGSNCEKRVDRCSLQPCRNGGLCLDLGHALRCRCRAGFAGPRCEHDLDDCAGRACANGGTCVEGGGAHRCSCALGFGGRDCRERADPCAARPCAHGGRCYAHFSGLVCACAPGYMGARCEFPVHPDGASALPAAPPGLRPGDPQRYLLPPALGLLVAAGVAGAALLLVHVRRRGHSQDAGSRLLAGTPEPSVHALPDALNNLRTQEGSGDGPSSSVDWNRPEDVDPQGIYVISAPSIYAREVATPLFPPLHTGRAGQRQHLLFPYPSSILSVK

Row | Variant | effect of a mutation on the interaction
12 | F133L | with no effect

Variants of: B1
Settings: with duox2_human DUOX2, Q9NRD8

Row | Variant | effect of a mutation on the interaction
13 | F133L | with no effect

Variants of: B1
Settings: with e2f2_human E2F2, Q14209

Row | Variant | effect of a mutation on the interaction
14 | F133L | with no effect

Variants of: B1
Settings: with e2f3_human E2F3, O00716

Row | Variant | effect of a mutation on the interaction
15 | F133L | with no effect

Variants of: B1
Settings: with e2f5_human E2F5, Q15329

Row | Variant | effect of a mutation on the interaction
16 | F133L | with no effect

Variants of: B1
Settings: with e2f6_human E2F6, O75461

Row | Variant | effect of a mutation on the interaction
17 | F133L | with no effect

Variants of: B1
Settings: with e2f8_human E2F8, A0AVK6

Row | Variant | effect of a mutation on the interaction
18 | F133L | with no effect

Variants of: B1
Settings: with if4e_human EIF4E

Row | Variant | effect of a mutation on the interaction
19 | F133L | with no effect

Variants of: B1
Settings: with epha7_human EPHA7, Q15375

Row | Variant | effect of a mutation on the interaction
20 | F133L | with no effect

Variants of: B1
Settings: with ephb1_human EPHB1, P54762

Row | Variant | effect of a mutation on the interaction
21 | F133L | with no effect

Variants of: B1
Settings: with erbb3_human ERBB3, P21860

Row | Variant | effect of a mutation on the interaction
22 | F133L | with no effect

Variants of: B1
Settings: with erbb4_human ERBB4, Q15303

Row | Variant | effect of a mutation on the interaction
23 | F133L | with no effect

Variants of: B1
Settings: with esr1_human ESR1, P03372

Row | Variant | effect of a mutation on the interaction
24 | F133L | with no effect

Variants of: B1
Settings: with etv1_human ETV1, P50549

Row | Variant | effect of a mutation on the interaction
25 | F133L | with no effect

Variants of: B1
Settings: with ezh1_human EZH1, Q92800

Row | Variant | effect of a mutation on the interaction
26 | F133L | with no effect

Variants of: B1
Settings: with ezh2_human EZH2, Q15910

Row | Variant | effect of a mutation on the interaction
27 | F133L | with no effect

Variants of: B1
Settings: with facd2_human FANCD2, Q9BXW9

Row | Variant | effect of a mutation on the interaction
28 | F133L | with no effect

Variants of: B1
Settings: with fgf19_human FGF19, O95750
Chain of fgf19_human FGF19, O95750 (O95750 whole entry): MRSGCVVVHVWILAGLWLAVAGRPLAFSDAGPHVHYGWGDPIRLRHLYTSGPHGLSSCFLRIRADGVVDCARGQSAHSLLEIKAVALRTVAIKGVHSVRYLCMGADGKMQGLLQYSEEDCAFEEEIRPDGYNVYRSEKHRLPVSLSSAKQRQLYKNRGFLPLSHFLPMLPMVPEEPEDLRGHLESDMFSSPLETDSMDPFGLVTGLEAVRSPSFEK

Row | Variant | effect of a mutation on the interaction
29 | F133L | with no effect

Variants of: B1
Settings: with fgfp1_human FGFBP1, Q14512

Row | Variant | effect of a mutation on the interaction
30 | F133L | with no effect

Variants of: B1
Settings: with fgfr4_human FGFR4, P22455

Row | Variant | effect of a mutation on the interaction
31 | F133L | with no effect

Variants of: B1
Settings: with fumh_human FH

Row | Variant | effect of a mutation on the interaction
32 | F133L | with no effect

Variants of: B1
Settings: with fzr1_human FZR1, Q9UM11

Row | Variant | effect of a mutation on the interaction
33 | F133L | with no effect

Variants of: B1
Settings: with gbra6_human GABRA6, Q16445

Row | Variant | effect of a mutation on the interaction
34 | F133L | with no effect

Variants of: B1
Settings: with gata1_human GATA1, P15976
Chain of gata1_human GATA1, P15976 (P15976 whole entry): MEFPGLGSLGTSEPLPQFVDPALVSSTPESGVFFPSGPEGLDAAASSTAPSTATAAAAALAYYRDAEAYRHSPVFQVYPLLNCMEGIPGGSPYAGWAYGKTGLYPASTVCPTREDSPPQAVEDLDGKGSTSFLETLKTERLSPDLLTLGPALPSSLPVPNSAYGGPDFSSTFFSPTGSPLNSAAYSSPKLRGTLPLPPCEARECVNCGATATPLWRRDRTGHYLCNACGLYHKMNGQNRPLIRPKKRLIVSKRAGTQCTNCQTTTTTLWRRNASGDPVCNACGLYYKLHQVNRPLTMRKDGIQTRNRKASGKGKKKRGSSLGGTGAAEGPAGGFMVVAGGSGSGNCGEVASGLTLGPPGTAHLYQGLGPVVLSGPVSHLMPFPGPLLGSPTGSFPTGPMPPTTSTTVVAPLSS

Row | Variant | effect of a mutation on the interaction
35 | F133L | with no effect

Variants of: B1
Settings: with p66b_human GATAD2B

Row | Variant | effect of a mutation on the interaction
36 | F133L | with no effect

Variants of: B1
Settings: with gna11_human GNA11, P29992
Chain of gna11_human GNA11, P29992 (P29992 whole entry): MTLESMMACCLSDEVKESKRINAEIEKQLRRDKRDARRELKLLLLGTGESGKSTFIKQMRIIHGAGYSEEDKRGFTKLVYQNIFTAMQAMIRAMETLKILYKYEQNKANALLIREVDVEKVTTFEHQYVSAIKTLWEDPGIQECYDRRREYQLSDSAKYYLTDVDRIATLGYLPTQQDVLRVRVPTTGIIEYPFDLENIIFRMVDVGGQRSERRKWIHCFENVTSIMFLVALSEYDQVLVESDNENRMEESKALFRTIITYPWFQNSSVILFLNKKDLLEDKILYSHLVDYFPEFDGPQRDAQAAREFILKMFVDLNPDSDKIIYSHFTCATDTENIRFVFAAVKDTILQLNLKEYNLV

Row | Variant | effect of a mutation on the interaction
37 | F133L | with no effect

Variants of: B1
Settings: with gna13_human GNA13, Q14344

Row | Variant | effect of a mutation on the interaction
38 | F133L | with no effect

Variants of: B1
Settings: with gnaq_human GNAQ

Row | Variant | effect of a mutation on the interaction
39 | F133L | with no effect

Variants of: B1
Settings: with grm1_human GRM1, Q13255

Row | Variant | effect of a mutation on the interaction
40 | F133L | with no effect

Variants of: B1
Settings: with grm3_human GRM3, Q14832

Row | Variant | effect of a mutation on the interaction
41 | F133L | with no effect

Variants of: B1
Settings: with gsk3b_human GSK3B

Row | Variant | effect of a mutation on the interaction
42 | F133L | with no effect

Variants of: B1
Settings: with gtpb4_human GTPBP4, Q9BZE4

Row | Variant | effect of a mutation on the interaction
43 | F133L | with no effect

Variants of: B1
Settings: with h33_human H3-3A

Row | Variant | effect of a mutation on the interaction
44 | F133L | with no effect

Variants of: B1
Settings: with hdac1_human HDAC1, Q13547

Row | Variant | effect of a mutation on the interaction
45 | F133L | with no effect

Variants of: B1
Settings: with hdac3_human HDAC3, O15379

Row | Variant | effect of a mutation on the interaction
46 | F133L | with no effect

Variants of: B1
Settings: with hgf_human HGF

Row | Variant | effect of a mutation on the interaction
47 | F133L | with no effect

Variants of: B1
Settings: with h31_human H3C1, P68431

Row | Variant | effect of a mutation on the interaction
48 | F133L | with no effect

Variants of: B1
Settings: with hlab_human HLA-B

Row | Variant | effect of a mutation on the interaction
49 | F133L | with no effect

Variants of: B1
Settings: with hnf1a_human HNF1A

Row | Variant | effect of a mutation on the interaction
50 | F133L | with no effect

Variants of: B1
Settings: with igf1r_human IGF1R

Row | Variant | effect of a mutation on the interaction
51 | F133L | with no effect

Variants of: B1
Settings: with il7ra_human IL7R

Row | Variant | effect of a mutation on the interaction
52 | F133L | with no effect

Variants of: B1
Settings: with int12_human INTS12, Q96CB8

Row | Variant | effect of a mutation on the interaction
53 | F133L | with no effect

Variants of: B1
Settings: with ist1_human IST1, P53990
Chain of ist1_human IST1, P53990 (P53990 whole entry): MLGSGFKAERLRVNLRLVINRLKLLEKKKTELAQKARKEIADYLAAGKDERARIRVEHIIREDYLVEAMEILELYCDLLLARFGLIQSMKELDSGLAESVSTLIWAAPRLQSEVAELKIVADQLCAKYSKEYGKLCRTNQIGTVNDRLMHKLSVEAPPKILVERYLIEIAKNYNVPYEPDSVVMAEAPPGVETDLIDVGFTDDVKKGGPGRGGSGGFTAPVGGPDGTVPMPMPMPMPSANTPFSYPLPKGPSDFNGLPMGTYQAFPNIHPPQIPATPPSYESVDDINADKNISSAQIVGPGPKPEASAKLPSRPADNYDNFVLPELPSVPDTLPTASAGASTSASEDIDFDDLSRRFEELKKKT

Row | Variant | effect of a mutation on the interaction
54 | F133L | with no effect

Variants of: B1
Settings: with jak3_human JAK3, P52333

Row | Variant | effect of a mutation on the interaction
55 | F133L | with no effect

Variants of: B1
Settings: with kat2a_human KAT2A

Row | Variant | effect of a mutation on the interaction
56 | F133L | with no effect

Variants of: B1
Settings: with kdm5a_human KDM5A

Row | Variant | effect of a mutation on the interaction
57 | F133L | with no effect

Variants of: B1
Settings: with kdm5c_human KDM5C

Row | Variant | effect of a mutation on the interaction
58 | F133L | with no effect

Variants of: B1
Settings: with kdm6a_human KDM6A

Row | Variant | effect of a mutation on the interaction
59 | F133L | with no effect

Variants of: B1
Settings: with vgfr2_human KDR

Row | Variant | effect of a mutation on the interaction
60 | F133L | with no effect

Variants of: B1
Settings: with lims1_human LIMS1, P48059

Row | Variant | effect of a mutation on the interaction
61 | F133L | with no effect

Variants of: B1
Settings: with maga6_human MAGEA6, P43360

Row | Variant | effect of a mutation on the interaction
62 | F133L | with no effect

Variants of: B1
Settings: with m3k1_human MAP3K1, Q13233
Chain of m3k1_human MAP3K1, Q13233 (Q13233 whole entry): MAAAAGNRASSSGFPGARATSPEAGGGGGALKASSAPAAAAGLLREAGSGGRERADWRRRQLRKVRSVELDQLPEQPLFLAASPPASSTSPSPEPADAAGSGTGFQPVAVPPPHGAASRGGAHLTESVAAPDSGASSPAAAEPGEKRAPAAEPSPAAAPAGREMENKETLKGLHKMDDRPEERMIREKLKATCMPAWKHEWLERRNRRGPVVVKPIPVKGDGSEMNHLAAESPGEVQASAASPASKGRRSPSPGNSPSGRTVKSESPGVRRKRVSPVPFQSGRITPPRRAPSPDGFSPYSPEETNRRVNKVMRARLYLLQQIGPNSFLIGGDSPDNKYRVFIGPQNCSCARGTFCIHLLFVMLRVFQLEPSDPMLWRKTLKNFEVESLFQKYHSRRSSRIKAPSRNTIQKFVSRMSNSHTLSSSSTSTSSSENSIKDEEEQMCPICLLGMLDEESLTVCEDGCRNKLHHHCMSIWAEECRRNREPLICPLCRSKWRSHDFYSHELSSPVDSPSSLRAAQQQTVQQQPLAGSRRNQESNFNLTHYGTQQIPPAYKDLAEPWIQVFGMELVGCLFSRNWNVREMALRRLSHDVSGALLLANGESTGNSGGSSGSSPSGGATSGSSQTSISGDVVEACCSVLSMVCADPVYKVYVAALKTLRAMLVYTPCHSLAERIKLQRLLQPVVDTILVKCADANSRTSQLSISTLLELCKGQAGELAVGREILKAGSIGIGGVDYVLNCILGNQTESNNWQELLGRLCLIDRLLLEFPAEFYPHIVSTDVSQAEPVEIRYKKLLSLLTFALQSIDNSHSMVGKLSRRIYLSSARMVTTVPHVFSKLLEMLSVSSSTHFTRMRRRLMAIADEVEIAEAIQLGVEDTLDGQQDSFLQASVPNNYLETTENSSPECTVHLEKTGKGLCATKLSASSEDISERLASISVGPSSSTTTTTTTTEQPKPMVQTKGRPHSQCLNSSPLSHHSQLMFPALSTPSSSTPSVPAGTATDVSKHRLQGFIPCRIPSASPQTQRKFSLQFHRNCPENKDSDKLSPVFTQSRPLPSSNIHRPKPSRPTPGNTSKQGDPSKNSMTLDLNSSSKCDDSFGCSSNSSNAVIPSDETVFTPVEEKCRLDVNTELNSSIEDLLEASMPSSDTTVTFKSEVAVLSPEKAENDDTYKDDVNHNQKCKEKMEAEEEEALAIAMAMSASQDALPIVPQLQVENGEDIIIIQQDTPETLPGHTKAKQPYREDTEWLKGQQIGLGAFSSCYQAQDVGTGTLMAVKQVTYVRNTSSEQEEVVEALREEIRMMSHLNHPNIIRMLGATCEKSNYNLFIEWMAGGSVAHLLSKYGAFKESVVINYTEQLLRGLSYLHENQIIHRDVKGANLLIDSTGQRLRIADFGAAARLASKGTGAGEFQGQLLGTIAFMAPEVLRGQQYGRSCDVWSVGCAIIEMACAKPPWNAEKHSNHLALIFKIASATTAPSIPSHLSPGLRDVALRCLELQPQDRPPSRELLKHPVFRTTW

Row | Variant | effect of a mutation on the interaction
63 | F133L | with no effect

Variants of: B1
Settings: with mk10_human MAPK10, P53779

Row | Variant | effect of a mutation on the interaction
64 | F133L | with no effect

Variants of: B1
Settings: with mk14_human MAPK14, Q16539

Row | Variant | effect of a mutation on the interaction
65 | F133L | with no effect

Variants of: B1
Settings: with mk03_human MAPK3, P27361

Row | Variant | effect of a mutation on the interaction
66 | F133L | with no effect

Variants of: B1
Settings: with mk04_human MAPK4, P31152

Row | Variant | effect of a mutation on the interaction
67 | F133L | with no effect

Variants of: B1
Settings: with mk06_human MAPK6, Q16659

Row | Variant | effect of a mutation on the interaction
68 | F133L | with no effect

Variants of: B1
Settings: with mk07_human MAPK7, Q13164

Row | Variant | effect of a mutation on the interaction
69 | F133L | with no effect

Variants of: B1
Settings: with sin1_human MAPKAP1, Q9BPZ7

Row | Variant | effect of a mutation on the interaction
70 | F133L | with no effect

Variants of: B1
Settings: with mcl1_human MCL1, Q07820
Chain of mcl1_human MCL1, Q07820 (Q07820 whole entry): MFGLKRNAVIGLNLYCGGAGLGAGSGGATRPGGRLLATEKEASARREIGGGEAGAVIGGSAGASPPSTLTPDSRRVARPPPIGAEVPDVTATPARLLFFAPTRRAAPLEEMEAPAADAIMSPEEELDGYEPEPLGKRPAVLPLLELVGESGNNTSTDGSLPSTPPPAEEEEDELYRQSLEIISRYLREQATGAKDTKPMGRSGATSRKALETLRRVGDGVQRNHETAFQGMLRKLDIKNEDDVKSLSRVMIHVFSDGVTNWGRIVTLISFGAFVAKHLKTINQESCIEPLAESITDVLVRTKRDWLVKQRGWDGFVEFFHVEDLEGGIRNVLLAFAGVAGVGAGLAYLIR

Row | Variant | effect of a mutation on the interaction
71 | F133L | with no effect

Variants of: B1
Settings: with mdm2_human MDM2, Q00987

Row | Variant | effect of a mutation on the interaction
72 | F133L | with no effect

Variants of: B1
Settings: with mef2a_human MEF2A

Row | Variant | effect of a mutation on the interaction
73 | F133L | with no effect

Variants of: B1
Settings: with mlh1_human MLH1, P40692
Chain of mlh1_human MLH1, P40692 (P40692 whole entry): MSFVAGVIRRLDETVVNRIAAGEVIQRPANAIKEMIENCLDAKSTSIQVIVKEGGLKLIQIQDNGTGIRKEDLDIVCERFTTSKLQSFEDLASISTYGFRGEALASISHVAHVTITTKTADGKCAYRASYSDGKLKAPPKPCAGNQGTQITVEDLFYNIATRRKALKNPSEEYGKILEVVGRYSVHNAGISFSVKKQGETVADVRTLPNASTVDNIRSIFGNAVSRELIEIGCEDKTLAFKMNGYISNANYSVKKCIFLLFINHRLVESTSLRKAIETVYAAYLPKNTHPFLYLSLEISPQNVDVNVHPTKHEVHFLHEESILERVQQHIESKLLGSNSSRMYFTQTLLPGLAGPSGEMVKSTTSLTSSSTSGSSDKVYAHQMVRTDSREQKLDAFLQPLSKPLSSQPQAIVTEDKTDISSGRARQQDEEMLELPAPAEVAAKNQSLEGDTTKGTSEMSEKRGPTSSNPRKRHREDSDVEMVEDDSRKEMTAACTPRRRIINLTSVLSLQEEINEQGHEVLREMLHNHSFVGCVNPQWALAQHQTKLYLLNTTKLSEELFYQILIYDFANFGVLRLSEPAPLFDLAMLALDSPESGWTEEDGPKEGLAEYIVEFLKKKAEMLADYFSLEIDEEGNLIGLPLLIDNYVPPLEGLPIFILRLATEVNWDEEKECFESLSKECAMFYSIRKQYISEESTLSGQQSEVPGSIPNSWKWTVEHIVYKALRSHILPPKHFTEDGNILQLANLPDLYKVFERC

Row | Variant | effect of a mutation on the interaction
74 | F133L | with no effect

Variants of: B1
Settings: with mtor_human MTOR

Row | Variant | effect of a mutation on the interaction
75 | F133L | with no effect
